# Measurements taken from the nanobody polyreactivity screen of Harvey et al. (2022).
# Test: yeast display, Sf9 membrane polyspecificity reagent, FACS + sequencing; frameworks hold sequencing errors
# How it was run: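 Nanobodies from a synthetic yeast display library (Saccharomyces cerevisiae BJ5465), induced 36–48 hours with galactose, were stained 1 hour at 4 °C with 10% biotinylated, detergent-solubilized Sf9 membrane reagent, enriched on streptavidin microbeads, then FACS-sorted. Anti-HA (expression) and streptavidin (reagent binding) fluorescence set low and high (top ~1%) gates. Polyreactivity labels come from the gate of origin. Genes were colony-PCR amplified, MiSeq 2 × 250 sequenced and filtered by CDR length.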
row,Sequence,polyreactivity (PSR sort gate)
1,QDQLVESGGGLVQAGGSLRLSCAASGSIFPNYAMGWYRQAPGKERELVAAISSSGGRTYYADSVKGRFTISRDNAKNTVYLQMNSLKPEDTAVYYCAADTYTSAQHEKYDYWGQGTQVTVSS,low polyreactivity
2,QDQLVESGGGLVQAGGSLRLSCAASGSIFRYYAMGWYIQAPGKEREFVASITYRGGRTYYADSVKGRFTISRDNAKNTFFLQMNSLKPEDTAVYYCAARTRAGAWTSKYHDYWGQGTQVNVSS,high polyreactivity
3,QDQLVESGGGLVQAGGSLRLSCAASGSIFSTYAMGWYRQAPGKERELVAAIDGSGGSTYADSVKGRFTISRDNAKNTVYLQMNSLKPEDTAVYYCAVDSFLVYSAVRPYDYWGQGTQVTVSS,low polyreactivity
4,QDQLVESGGGLVQAGGSLRLSCAASGSIFVYNTMGWYRPAPRKESDLVAAISSSGGSTYYADSVKGRYTISRDNAKNTVYLQMNSLKPEDTAVYYCAAVNGYQYPPNYYNGYDYWGQGTQVTVSS,low polyreactivity
5,QDQLVESGGGLVQAGGSLRLSCAASGSIFYDKAMAWYRQAPGKEREFVASITNSGSTNYADSVKGRFTISRDNAKNTVYLQMNSLKAEDTAVYFCAAEVYVDYTGYSYFDYPYDYWGQGTHVTVSS,low polyreactivity
6,QDQLVESGGGLVQAGGSLRLSCAASGSIFYRNAMGWYRQAPGKERELVAAITRGGITNYADSVKGRFTISRDNAKNTVYLQMNSLKPEDTAVYYCPRVPGRTTQYDYWGQGTQVTVSS,low polyreactivity
7,QDQLVESGGGLVQAGGSLRLSCAASGSNFDRYTMGWYRQAPGKERELLAAITRRGGSTNYADSVKGRFTISRDNAKFTVYLQMISLKPEDTALYYCARATDLNDKPSWDEYWGQGTQVTVSS,high polyreactivity
8,QDQLVESGGGLVQAGGSLRLSCAASGSNFSWNDMGWYRQAPGKERELVAAITSDDTSTYYADSVKGRFTISRDNAKNSVYLQMNSLKPEDTAVYYCAADYGNPFDYWGQGTQVTVSS,low polyreactivity
9,QDQLVESGGGLVQAGGSLRLSCAASGSSFDINAMGGYRQAPGKERELVAAISWIGGSTYYADSVKGRFTISRDNAKNTVYLKMNSLKPEDTAVYYCAKKELRQYDMEYWGQGTQVTVSS,low polyreactivity
10,QDQLVESGGGLVQAGGSLRLSCAASGSSFFSNAMGWYRPAPGKERELVAAITSTGGSTYYADSVKGRFTISRDHAKNTVYLQMNSLKPEDTAVYYCAAASRRGYYYWGQGTQVTVSS,high polyreactivity
11,QDQLVESGGGLVQAGGSLRLSCAASGSTFFRNAMGWYRQAPGKERELVASITSGGNTKYADSVKGRFTISCDNAKNTVYVQMNSLKPEDTAVYYCAAQFYHFARYSRLYNSWGQGTQVTVSS,low polyreactivity
12,QDQLVESGGGLVQAGGSLRLSCAASGSTFHPYAMGWYRQAPGKERELVAAITFSGGSTYADSVKGRFTISRDNAKNTVYLQMNSLKPEDNAVYYCAAEWWYWRGWRDYWGQGTQVTVSS,low polyreactivity
13,QDQLVESGGGLVQAGGSLRLSCAASGSTFKYNAMGWYRQAPGQERELVAAITSGGSTDYADSVKGRFTISRDNAMNHVYFQMNLLNPEDTAVYYCNDDIYPHDGYPWQGDYDYWGQGTQVTVSS,low polyreactivity
14,QDQLVESGGGLVQAGGSLRLSCAASGSTFPDYAMGWYRQAPGKERELVAAISRSGGRTYYADSVKGRFTISRDNAKNTVYLQMNSLKPDDTAVYYCATSRVRSAGRDYWGQGTQVTVSS,high polyreactivity
15,QDQLVESGGGLVQAGGSLRLSCAASGSTFSKNTMGWYRQAPGKERELVAAITTRGSSTYYADSVKGRFTISRDNAKNTVYLQMNSLKPEDTAVYYCNAPYRVTGGRYRWYDYWGQGTQVTVSS,high polyreactivity
16,QDQLVESGGGLVQAGGSLRLSCAASGSTFSWYTMGWYRQAPGKERELVAAISKRGGSTYYADSVKGRFTISRDNAKNTVYLQMNSLKPEDTAVYYCNKDDERGKLYYWGQGTQVTVSS,high polyreactivity
17,QDQLVESGGGLVQAGGSLRLSCAASGSTFVKNAMGWYRQAPGKERELVATISKSAGRTYYADSVKGRFTISRDNAKNTVYLQMNSLKPEDTAVYYCNVVQKRDFDYWGQGTQVTVSS,high polyreactivity
18,QDQLVESGGGLVQAGGSLRLSCAASGSTFVRSVMGWYRQAPGKERELVAAISRRGGSTYYADSVKGRFTISRDNAKNTVYLQMNSQKPEDTAVYYCARTVGYRTLLESDSWGQGTQVTVAS,high polyreactivity
19,QDQLVESGGGLVQAGGSLRLSCAASGSTFVRYDMGWYRQAPGKERELVADISWSGVSTYADSVKGRFTISRDNAKNTVYLQMNSLKPEDTAVYYCAKDSDLYQRGGYYWGQGTQVTVSS,low polyreactivity
20,QDQLVESGGGLVQAGGSLRLSCAASGSTIRANAMGWYRQATGKERELVAAITKNGGSTYYADSVKGRFTISRDNAKNTVYLQMNSLKPEDTAVYYCAARRSSRRPPYYYWGQGTQVTVSS,high polyreactivity
21,QDQLVESGGGLVQAGGSLRLSCAASGSTLRRYAMGWYRQAPGKERELVAAISGSGDSTYYADSVKGRFTISRDNAKNTVYLQMNSLKPEDTAVYYCNAVYAFNGYDYWGQGTQVTVSS,low polyreactivity
22,QDQLVESGGGLVQAGGSLRLSCAASGSTLRYYAMGWYRQAPGKERELVAAITYSAGRTSYADSVKGRFTISRDNAKNTVYLQMNSLKPEDTAVYYCATQWHSYLRRYDYWGQGTQVTVSS,low polyreactivity
23,QDQLVESGGGLVQAGGSLRLSCAASGSTLYSNTMGWYRPAPGKERELVAAICWSGASTYYADSVKGRFSISRDNAKNTVYLQMNSLKPEDTAVYYCAAGAYRNWGLYYYWGQGTQVTVSS,high polyreactivity
24,QDQLVESGGGLVQAGGSLRLSCAASGSTYYYAMGWYRQAPGKERELVAAIRSGSRTYADSVKGRFTISRDNAKNTVYLQMNSLKPEDTAVYYCAATTWRHNFYSWGQGTQVTVSS,high polyreactivity
25,QDQLVESGGGLVQAGGSLRLSCAASGYIFITKAMGLNRQAPGKERELVAAINSGGSTYYADSVKGRFTISRDNAKNTVYLQMKSLKPEDTAVYYCAAEYWVYYWHYYDYWGQGTQVTVSS,high polyreactivity
26,QDQLVESGGGLVQAGGSLRLSCAASGYTFAYYAMGWYRQAPGKERELVARITSGGRTYYADSVKGRFTISRDNAKNTVYLQMNSLKPEDTAVYYCNAAWPFRYRRYDYWGQGTQVSVSS,high polyreactivity
27,QDQLVESGGGLVQAGGSLRLSCAASRRTFSNYAMGWYRPAPGKERELVAAISGTGDNTYYADSVKVRFTISRDNANYTVYLQMNSLKPEDTAVYYCNTVYYGWPRCYGYWGQGTQVTVSS,high polyreactivity
28,QDQLVESGGGLVQAGGSLRLSCAASVSIFWSYAMGRSRQAPGKEMELVASITRSGGSTYYADSVKGRFTISRDNAKNTVYLQMNSLKPEDTAVYYCNARRTTRWGSSKYEYDYCGQGTQVTVSS,high polyreactivity
29,QDQLVESGGGLVQAGGSLRLSCAAYGYTFPWYAMGWYRQAPGKERELVAAISDTGTTNYADSVKGRFTISRDNAKNTVYLQMNSLKPEDTAVYYCNAKVTSYWYYPFNYWGQGTQVTVSS,low polyreactivity
30,QDQLVESGGGLVQAGGSLRLSFAASGSIFGVNALGWYRQAPGKERELVAAISARGGSTYYADSVKGRFTISRDNAKNTVYLQMNSQKPEDTAVYYCAATFRARPRENYWGQGTQVTVSS,high polyreactivity
